Experimental data reported in patent publication US20160046944, “APTAMER TO IL-17 AND USE THEREOF” (THE UNIVERSITY OF TOKYO, published 2016).

T1: IL-17 (Homo sapiens, UniProt Q16552 Q16552:24-155)
T1 sequence: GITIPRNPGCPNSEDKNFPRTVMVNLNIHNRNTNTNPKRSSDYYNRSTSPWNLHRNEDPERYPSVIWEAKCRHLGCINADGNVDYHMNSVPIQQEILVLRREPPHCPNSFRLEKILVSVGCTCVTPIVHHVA

T2: IL-17 (IL-17A) (Homo sapiens, UniProt Q16552 Q16552:24-155)
T2 sequence: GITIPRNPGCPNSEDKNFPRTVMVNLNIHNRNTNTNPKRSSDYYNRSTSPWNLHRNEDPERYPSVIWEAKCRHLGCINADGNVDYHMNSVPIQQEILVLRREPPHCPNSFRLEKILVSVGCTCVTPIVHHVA

B1: aptamer No. 55 (mixed)
mixed: GGGUAGCCGGAGGAGTCAGTGAUCGGUACCC
modifications: 2'-OMe (M), 2'-F (F), PS (S) as marked; uppercase DNA [2'-OMe: 1,2,3,4,7,8,10,13,14,23,24,25,26,28; 2'-F: 11,17,18,27; PS: 6]
B2: aptamer No. 52 (mixed)
mixed: GGGUAGCCGGAGGAGTCAGTAAUCGGUACCC
modifications: g(M)g(M)g(M)u(M)Ag(S)c(M)c(M)Gg(M)a(F)gg(M)a(M)g(S)Tc(F)a(F)gTa(M)a(M)u(M)c(M)g(M)g(M)u(F)a(M)CCC
B3: aptamer No. 26 (mixed)
mixed: GGGUAGCCGGAGGAGTCAGTAAUCGGTACCC
modifications: (M)=2'-OMe,(F)=2'-F,(S)=PS, lowercase RNA, uppercase DNA: g(M)g(M)g(M)u(M)Ag(S)c(M)c(M)Gg(M)Agg(M)a(M)gTc(F)agTaau(M)c(M)g(M)g(M)Ta(M)c(M)c(M)c(M)
B4: aptamer No. 29 (mixed)
mixed: GGGUAGCCGGAGGAGTCAGTAAUCGGTACCC
modifications: g(M)g(M)g(M)u(M)Agc(M)c(M)Gg(M)Agg(M)a(M)gTc(F)agTa(M)a(M)u(M)c(M)g(M)g(M)Ta(M)c(M)c(M)c(M)
B5: aptamer No. 47 (mixed)
mixed: GGGUAGCCGGAGGAGTCAGTAAUCGGUACCC
modifications: g(M)g(M)g(M)u(M)Agc(M)c(M)Gg(M)a(F)gg(M)a(M)gTc(F)a(F)gTaau(M)c(M)g(M)g(M)u(F)a(M)CCC
B6: aptamer No. 31 (mixed)
mixed: GGGUAGCCGGAGGAGTCAGTAAUCGGTACCC
modifications: g(M)g(M)g(M)u(M)Ag(S)c(M)c(M)Gg(M)Agg(M)a(M)gTc(F)agTaau(M)c(M)g(M)g(M)TAc(M)c(M)c(M)
B7: aptamer No. 48 (mixed)
mixed: GGGUAGCCGGAGGAGTCAGTAAUCGGUACCC
modifications: g(M)g(M)g(M)u(M)Agc(M)c(M)Gg(M)agg(M)a(M)gTc(F)agTaau(M)c(M)g(M)g(M)u(F)a(M)CCC
B8: aptamer No. 30 (mixed)
mixed: GGGUAGCCGGAGGAGTCAGTAAUCGGTACCC
modifications: g(M)g(M)g(M)u(M)Agc(M)c(M)Gg(M)Agg(M)a(M)gTc(F)agTa(M)Au(M)c(M)g(M)g(M)Ta(M)c(M)c(M)c(M)
B9: aptamer No. 35 (mixed)
mixed: GGGUAGCCGGAGGAGTCAGTAAUCGGTACCC
modifications: g(M)g(M)g(M)u(M)Agc(M)c(M)Gg(M)Agg(M)a(M)gTc(F)AgTa(M)Au(M)c(M)g(M)g(M)Ta(M)c(M)c(M)c(M)
B10: aptamer No. 32 (mixed)
mixed: GGGUAGCCGGAGGAGTCAGTAAUCGGTACCC
modifications: g(M)g(M)g(M)u(M)Agc(M)c(M)gg(M)Agg(M)a(M)gTc(F)agTa(M)a(M)u(M)c(M)g(M)g(M)TACCC
B11: aptamer No. 49 (mixed)
mixed: GGGUAGCCGGAGGAGTCAGTAAUCGGUACCC
modifications: g(M)g(M)g(M)u(M)Agc(M)c(M)Gg(M)Agg(M)a(M)gTc(F)agTaau(M)c(M)g(M)g(M)u(F)a(M)CCC (one (M) misprinted as (PI))
B12: aptamer No. 33 (mixed)
mixed: GGGUAGCCGGAGGAGTCAGTAAUCGGTACCC
modifications: g(M)g(M)g(M)u(M)Agc(M)c(M)gg(M)Agg(M)a(M)gTc(F)agTa(M)Au(M)c(M)g(M)g(M)TACCC
B13: aptamer No. 71 (mixed)
RNA: GGGUAGCCGGAGGAGUCAGUAAUCGGUACCC
modifications: 2'-OMe (M), 2'-F (F), PS (S) as marked; uppercase DNA [2'-OMe: 1-5,7,8,10,13,14,17,21-26,28-31; 2'-F: 11,16,18,20,27; PS: 6,15,19]
B14: aptamer No. 67 (mixed)
mixed: GGGUAGCCGGAGGAGTCAGTAAUCGGUACCC
modifications: 2'-OMe (M), 2'-F (F), PS (S) as marked; uppercase DNA [2'-OMe: 1-5,7,8,10,13,14,17,21-31; 2'-F: 11,18; PS: 6,15,19]
B15: aptamer No. 61 (mixed)
mixed: GGGUAGCCGGAGGAGTCAGTAAUCGGUACCC
modifications: 2'-OMe (M), 2'-F (F), PS (S) as marked; uppercase DNA [2'-OMe: 1,2,3,4,7,8,10,11,13,14,19,21,22,23,24,25,26,28; 2'-F: 17,18,27; PS: 6,15]
B16: aptamer No. 57 (mixed)
mixed: GGGUAGCCGGAGGAGTCAGTAAUCGGUACCC
modifications: 2'-OMe (M), 2'-F (F), PS (S) as marked; uppercase DNA [2'-OMe: 1,2,3,4,7,8,10,13,14,19,21,22,23,24,25,26,28; 2'-F: 11,17,18,27; PS: 6,15]
B17: aptamer No. 88 (mixed)
RNA: GGGUAGCCGGAGGAGUCAGUGAUCGGUACCC
modifications: 2'-OMe (M), 2'-F (F), PS (S) as marked; uppercase DNA [2'-OMe: 1-5,7,8,10,11,13,14,17,22-26,28-31; 2'-F: 16,18,20,27; PS: 6,15,19; DNA: 9]
B18: aptamer No. 74 (mixed)
mixed: GGGUAGCCGGAGGAGTCAGTAAUCGGUACCC
modifications: 2'-OMe (M), 2'-F (F) as marked; uppercase DNA [2'-OMe: 1-5,7,8,10,13,14,21-26,28-31; 2'-F: 11,17,18,27]
B19: aptamer No. 50 (ssRNA)
RNA: GGUCUAGCCGGAGGAGUCAGUAAUCGGUAGACC
modifications: 2'-F all U and C except none: ggu(F)c(F)u(F)agc(F)c(F)ggaggagu(F)c(F)agu(F)aau(F)c(F)ggu(F)agac(F)c(F)

These binders were tested against T1, IL-17 (assay: SPR; IL-17 150 nM, aptamer 12.5 or 50 nM). Settings: chain copies: 2.
Procedure: Whether the synthesized aptamers inhibit the binding of IL-17 and IL-17 receptor was evaluated by the surface plasmon resonance method.
For the measurement, BIAcore T100 manufactured by GE Healthcare Bio Sciences was used. […] As an analyte, IL-17 (150 nM) and each aptamer (12.5 or 50 nM) shown by Table 3 were mixed, maintained for 15 min and after that the mixture was flown.
B1 was tested, and the binding signal was 19 % IL-17/IL-17R binding remaining.

What follows are binders tested against T2, IL-17 (IL-17A) (assay: cell_activity; IL-6 release (ELISA), NIH3T3). Settings: chain copies: 2.
Procedure: (§1) First, human IL-17 and the aptamer produced in Example 1-2 were pre-incubated at 37° C. for 30 min, and added to NIH3T3 cell (ATCC, CRL1658) together with mouse TNFα (2 ng/mL). Then, after incubation for 24 hr, the culture supernatant was collected, and the production amount of IL-6 was measured by ELISA method described below. The IL-17 inhibitory action of each aptamer was determined from the production amount of IL-6. For comparison with the aptamer of the present invention, a conventionally-known aptamer (aptamer No. 50) against IL-17 was used.
(§2) ELISA method for verifying IL-17 inhibitory action of aptamer: A microtiter plate for ELISA was coated with rat anti-mouse IL-6 antibody (BD Biosciences, 2 μg/mL; 100 μL/well) diluted with PBS, and incubated at 4° C. overnight. The next day, the microtiter plate was washed 3 times with PBS/0.05% Tween 20, and applied blocking with PBS/1% BSA (200 μL/well) at room temperature for 2 hr. Then, the plate was washed 3 times with PBS/0.05% Tween 20. Recombinant mouse IL-6 (BD Biosciences; 100 μL/well) serially diluted with PBS/1% BSA/0.05% Tween 20 or culture supernatants (100 μL/well) were added to the plate. […] After 15 min, aqueous sodium hydroxide solution (2N: 50 μL/well) was added to stop the reaction, and the plate was read on a microtiter reader (Bio-Rad) by using a 405 nm filter.
B2 showed an IC50 of 1.11 nM.

The binders below were run against T2, IL-17 (IL-17A) (assay: cell_activity; IL-6 release, NIH3T3, 37 C). Settings: chain copies: 2.
Procedure: as §1, with “1-1” for “1-2”, “the” for “the production”, “BD Cytometric Bead Array (BD Biosciences).” for “ELISA method described below.”
For B3, the IC50 was 0.78 nM.

What follows are binders tested against T2, IL-17 (IL-17A) (assay: cell_activity; IL-6 release, NIH3T3). Settings: chain copies: 2.
Procedure: as §1, with “1-1” for “1-2”, “the” for “the production”, “BD Cytometric Bead Array (BD Biosciences).” for “ELISA method described below.”
Binder B4 has an IC50 of 2.53 nM.
With B5 the IC50 was 0.59 nM.
B6 showed an IC50 of 0.3 nM.
In the case of B7, the IC50 is reported as 0.3 nM.
Binder B8 has an IC50 of 1.49 nM.
For B9, the IC50 was 2.47 nM.
Binder B10 has an IC50 of 4.62 nM.
Work on B11 yielded an IC50 of 0.65 nM.
B12 showed an IC50 of 4.31 nM.

The binders below were run against T1, IL-17 (assay: cell_activity; NIH3T3 IL-6 release). Settings: chain copies: 2.
Procedure: as §1
ELISA method for verifying IL-17 inhibitory action of aptamer: A microtiter plate for ELISA was coated with rat anti-mouse IL-6 antibody (BD Biosciences, 2 μg/mL; 100 μL/well) diluted with PBS, and incubated at 4° C. overnight. The next day, the microtiter plate was washed 3 times with PBS/0.05% Tween 20, and applied blocking with PBS/1% BSA (200 μL/well) at room temperature for 2 hr. Then, the plate was washed 3 times with PBS/0.05% Tween 20. Recombinant mouse IL-6 (BD Biosciences; 100 μL/well) serially diluted with PBS/1% BSA/0.05% Tween 20 or culture supernatants (100 μL/well) were added to the plate. After incubation at room temperature for 2 hr, the plate was washed 3 times with PBS/0.05% Tween 20. Then, 100 μL/well of biotin conjugated rat anti-mouse IL-6 antibody (BD Biosciences) was added to the plate at final dilution of 1/500, and the mixture was reacted at room temperature for 1 hr. After washing 3 times with PBS/0.05% Tween 20, 100 μL/well of alkaline phosphatase conjugated streptavidin was added at final dilution of 1/1000. After 30 min at room temperature, the plate was again washed 4 times with PBS/0.05% Tween 20, and a substrate (1-Step PNPP; Thermo Fisher Scientific Inc; 100 μL/well) was added. After 15 min, aqueous sodium hydroxide solution (2N: 50 μL/well) was added to stop the reaction, and the plate was read on a microtiter reader (Bio-Rad) by using a 405 nm filter.
B1 was tested, and the IC50 was 0.11 nM.
B13 gave an IC50 of 5.54 nM.
Work on B14 yielded an IC50 of 5.95 nM.
B15 gave an IC50 of 3.41 nM.
B16 showed an IC50 of 2.36 nM.
For B17, the IC50 was 2.88 nM.
B18 was tested, and the IC50 was 1.06 nM.

The binders below were run against T1, IL-17 (assay: cell_activity; NIH3T3 IL-6 release, human IL-17 + mouse TNFa, 37 C; 8.63 nM in Table 6). Settings: chain copies: 2.
Procedure: as §1, §2
Work on B19 yielded an IC50 of 7.36 nM.
